US20260265396A1 (BIOARCTIC, published 2026)

How the values were obtained:
[1] = target: T1, chimeric TfR1 consisting of human apical domain grafted on mouse TfR1 ectodomain (SEQ ID NO:57) (human/mouse chimera); test: indirect ELISA, plate coated with 1 ug/ml h/m apical domain chimera (axis labelled TfR (ng/ml)) [C]
T1 construct: His-tagged ELISA coat; also called h/m apical domain chimera
T1 chain: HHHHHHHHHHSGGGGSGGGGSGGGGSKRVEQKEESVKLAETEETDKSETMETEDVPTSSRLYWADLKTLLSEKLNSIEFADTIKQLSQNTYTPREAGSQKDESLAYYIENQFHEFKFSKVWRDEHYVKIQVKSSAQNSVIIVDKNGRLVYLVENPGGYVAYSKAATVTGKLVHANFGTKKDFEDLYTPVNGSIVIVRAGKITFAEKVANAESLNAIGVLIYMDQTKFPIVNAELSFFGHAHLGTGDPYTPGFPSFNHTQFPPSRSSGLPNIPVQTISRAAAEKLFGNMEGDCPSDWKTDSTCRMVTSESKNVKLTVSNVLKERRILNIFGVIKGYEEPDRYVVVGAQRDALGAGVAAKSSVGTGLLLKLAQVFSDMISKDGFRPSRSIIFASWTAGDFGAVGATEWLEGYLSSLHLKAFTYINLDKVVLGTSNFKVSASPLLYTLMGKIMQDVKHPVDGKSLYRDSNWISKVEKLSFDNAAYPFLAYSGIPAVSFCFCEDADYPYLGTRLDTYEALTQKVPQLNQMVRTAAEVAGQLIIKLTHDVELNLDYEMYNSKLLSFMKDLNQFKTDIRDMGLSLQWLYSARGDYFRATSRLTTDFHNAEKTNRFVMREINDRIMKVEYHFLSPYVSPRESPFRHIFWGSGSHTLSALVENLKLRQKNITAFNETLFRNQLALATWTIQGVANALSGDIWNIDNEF
Protocol: The coated plates were then blocked. Dilution series of mouse IgG of the analyzed antibodies were prepared in PBS and incubated on the ELISA plates. Unbound antibodies were then washed off before incubating wells with a HRP-conjugated secondary, anti-mouse-IgG for 1 h. Plates were then washed again before addition of HRP substrate TMB for development and detection of antibody binding to the wells. TMB development was stopped by adding 0.5 M H₂SO₄ to the wells and ELISA responses measured as the OD at 450 nm in an ELISA plate reader.

[2] = target: T2, human TfR1, recombinant, construct not stated for the experiment (human, UniProt P02786 89-760, limits assumed); test: indirect ELISA, plate coated with 1 ug/ml recombinant hTfR1 ectodomain, Fab 1:3 dilution series, anti-human IgG F(ab')2-HRP [lower panel hTfR1]
T2 construct: Biotinylated in the binning and scFv-Fc BLI experiments; also called hTfR1; biotinylated hTfR1
T2 sequence (P02786 89-760 limits assumed): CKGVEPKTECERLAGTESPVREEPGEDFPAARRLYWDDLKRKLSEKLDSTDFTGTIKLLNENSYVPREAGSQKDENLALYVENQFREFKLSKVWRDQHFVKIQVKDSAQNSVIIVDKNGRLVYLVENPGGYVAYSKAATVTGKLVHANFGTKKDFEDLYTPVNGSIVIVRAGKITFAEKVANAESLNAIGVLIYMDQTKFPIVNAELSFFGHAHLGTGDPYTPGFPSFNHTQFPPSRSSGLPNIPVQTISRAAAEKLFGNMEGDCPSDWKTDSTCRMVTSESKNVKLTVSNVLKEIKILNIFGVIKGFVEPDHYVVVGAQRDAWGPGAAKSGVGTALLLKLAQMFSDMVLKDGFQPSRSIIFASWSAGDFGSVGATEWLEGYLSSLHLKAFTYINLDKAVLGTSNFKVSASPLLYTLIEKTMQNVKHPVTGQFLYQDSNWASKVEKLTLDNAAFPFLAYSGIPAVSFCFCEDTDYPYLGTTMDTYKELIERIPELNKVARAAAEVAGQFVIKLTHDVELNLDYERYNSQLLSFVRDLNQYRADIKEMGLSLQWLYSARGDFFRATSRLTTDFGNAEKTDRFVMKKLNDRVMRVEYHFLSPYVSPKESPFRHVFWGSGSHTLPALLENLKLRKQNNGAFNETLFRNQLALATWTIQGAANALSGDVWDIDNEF

B1: mouse monoclonal antibody 26D3 (antibody, mouse IgG2a, V domains shown)
VH: EVQLQQFGVELVKPGASVKISCKASGYIFTDYNMDWVKQSHGKSLEWIGDINPDYDTTSYNEKFKGKATLTVDKSSSTAYMELRSLTSEDTAVYYCARGGYSGSSYYHPMDYWGQGTSVTVSS
VL: DIVMSQSPSSLAVSVGEKITMSCKSSQSLLYSTNQKNYLAWYQQKPGQSPELLIYWASTRESGVPDRFTGSGSGTDFTLTISNVRAEDLAVYYCQQYFIYPRTFGGGTKLEIK
**Q.** Does B1 bind [1]?
**A.** Result: no binding (tested: about 650 ng/ml)

B2: h26D3 Fab (humanized 26D3) (Fab, V domains shown)
VH: EVQLVQSGAEVKKPGSSVKVSCKASGYIFTDYNMDWVRQAPGQGLEWIGDINPDYDTTSYNEKFKGRATLTVDKSTSTAYMELSSLRSEDTAVYYCARGGYSGSSYYHPMDYWGQGTLVTVSS
VL: DIQMTQSPSSVSASVGDRVTITCKSSQSLLYSTNQKNYLAWYQQKPGKAPKLLIYWASTRESGVPSRFSGSGSGTDFTLTISSLQPEDFATYYCQQYFIYPRTFGQGTKVEIK
notes: His-tagged Fab from ExpiCHO cells
**Q.** With B2 as the binder, how does the “EC50 (read off the curve)” value [2] read?
**A.** Its value is ~500 nM.
